Test results: patent US20140147464A1, “METHOD AND COMPOSITION FOR INDUCING AUTOPHAGY” (NATIONAL YANG-MING UNIVERSITY, priority 2012, published 2014)

Legend:
PC12 cells = assay: PC12 bioassay of neurite outgrowth with astrocyte-conditioned medium; type: cell-based; conditions: 24 h
Protocol: To evaluate neurite outgrowth, PC12 cells were plated at a low density (2×10^4 cells per cm^2) onto poly-D lysine-coated 24-well plates. After 24 h, the adherent PC12 cells were washed with PBS and incubated with conditioned medium derived from either untreated or Ganoderma lucidum-treated astrocyte cultures to monitor neurite outgrowth (using a low serum condition in DMEM containing 1% FBS). Eight to ten images per group were photographed under light microscopy, and the percentage of cells with neurites that exceeded (the percentage of cells with neurites exceeding) the diameter of cell body was analyzed by examining 100-200 cells per image. Images were analyzed by an operator blinded to the experimental conditions. For the preparation of ACM, astrocytes were treated with Ganoderma lucidum for 24 hours and were washed with PBS and fed with low serum medium (without Ganoderma lucidum). After 24 hours, the medium was centrifuged at 200×g for 20 mins to remove cell debris, and the supernatant was collected as the ACM and used immediately. Murine NGF 100 ng/ml (Promega Biotech Co., Ltd, USA) was used as positive control.

NGF = NGF expression and release in primary astrocyte cultures (RT-PCR, real time PCR, western blot); type: cell-based, C57BL/6J mice; conditions: primary astrocytes, 6 hours
Protocol: Astrocyte-enriched cultures were prepared from post-natal one day-old C57BL/6J mice obtained from the Animal Center at the National Yang Ming University, Taiwan. Briefly, cortical tissue was digested with trypsin. The resultant dissociated cells were suspended in DMEM containing 10% FBS and incubated in 100-mm culture dishes. After 3 days in culture, cells were re-fed with fresh 10% FBS/DMEM and maintained at 37° C. for an additional 3 days. The cells were dissociated with trypsin, suspended in 10% FBS/DMEM and incubated in a 10-cm dish for 7-8 days prior to use. Astrocytes prepared by this method consisted of approximately 90-95% astrocytes as determined by immunochemical staining with an antibody against glial fibrillary acidic protein (GFAP), a specific marker for astrocytes. Neural stem cell cultures were prepared from 1 day-old C57BL/6J mice. Cells obtained by trypsinization of cortical tissue were suspended in 100 ml DMEM/F12 medium (2×10^5 cells/ml) containing 1% N2, 20 ng/ml EGF, 20 ng/ml bFGF and […] BSA in 1 L roller bottles for 7 days for the formation of neurospheres. The neurospheres were examined with an antibody against nestin, a specific marker for neural stem cells. […]
RNA was prepared using RNA-Bee™ RNA isolation reagent (Tel-test, Friendswood, Tex.). […] Relative gene expression levels were calculated with the 2^−ΔΔCT method. […]

[1] = system: mHtt74Q-expressing PC12 cell; assay: Autophagy in HD cell model: MDC staining and western blot of LC3-II; type: cell-based
Protocol: Mammalian expression vectors comprising EGFP (pEGFP-C1, Clontech) fused at its C terminus with an HD gene exon 1 fragment with 74 polyglutamine repeats (mHtt-74Q) was a gift from Dr. David C. Rubinsztein's laboratory. The PC12 stable cells were maintained in 100 µg/ml hygromycin in standard medium consisting of DMEM with 100 U/ml penicillin/streptomycin, 2 mM L-glutamine, 10% heat-inactivated horse serum, 5% FBS and 200 ug/ml G418 at 37° C., 5% CO2. The cells were seeded at 2×10^5 per well in 12-well plates and were induced expression of mHtt-74Q with 200 ng/ml doxycycline for 24 h. The expression of transgenes was switched off by removing doxycycline from the medium. […] They were either fixed with 1% paraformaldehyde for 20 mins for FACS analysis (BD Biosciences) of EGFP fluorescence of mHtt-74Q followed by analysis of mean fluorescence intensity of 10,000 events by Cellquest software (BD Biosciences) or processed for real time PCR analysis. […] The samples were mounted and analyzed using a fluorescence microscope (Olympus IX-70 and POT2, USA) with excitation wave of 335 nm and emission of 525 nm. The intensity of the color staining reflected the level of autophagic activity, which was measured with an Image-Pro Plus Analysis system (Media Cybernetics, Bethesda, USA). To quantify MDC punctae, at least 4 random fields were imaged and the average number of punctae area per cell was calculated. […]

[2] = system: mHtt74Q-expressing PC12 cell; assay: mHtt-74Q aggregation in HD cell model by FACS analysis of EGFP fluorescence; type: cell-based
Protocol: Mammalian expression vectors comprising EGFP (pEGFP-C1, Clontech) fused at its C terminus with an HD gene exon 1 fragment with 74 polyglutamine repeats (mHtt-74Q) was a gift from Dr. David C. Rubinsztein's laboratory. The PC12 stable cells were maintained in 100 µg/ml hygromycin in standard medium consisting of DMEM with 100 U/ml penicillin/streptomycin, 2 mM L-glutamine, 10% heat-inactivated horse serum, 5% FBS and 200 ug/ml G418 at 37° C., 5% CO2. The cells were seeded at 2×10^5 per well in 12-well plates and were induced expression of mHtt-74Q with 200 ng/ml doxycycline for 24 h. The expression of transgenes was switched off by removing doxycycline from the medium. […] They were either fixed with 1% paraformaldehyde for 20 mins for FACS analysis (BD Biosciences) of EGFP fluorescence of mHtt-74Q followed by analysis of mean fluorescence intensity of 10,000 events by Cellquest software (BD Biosciences) or processed for real time PCR analysis. […] The samples were mounted and analyzed using a fluorescence microscope (Olympus IX-70 and POT2, USA) with excitation wave of 335 nm and emission of 525 nm. The intensity of the color staining reflected the level of autophagic activity, which was measured with an Image-Pro Plus Analysis system (Media Cybernetics, Bethesda, USA). To quantify MDC punctae, at least 4 random fields were imaged and the average number of punctae area per cell was calculated.

**Q.** With Ganoderic acid C2 as the molecule, how does the neurite outgrowth activity (PC12 cells) read?
**A.** particularly marked

**Q.** And the “NGF mRNA expression” value (NGF)?
**A.** particularly marked

B1: NGF: Nerve growth factor; murine NGF (Promega) used as positive control (protein, UniProt P01139 122-241, looked up)
Beta-nerve growth factor: SSTHPVFHMGEFSVCDSVSVWVGDKTTATDIKGKEVTVLAEVNINNSVFRQYFFETKCRASNPVESGCRGIDSKHWNSYCTTTHTFVKALTTDEKQAAWRFIRIDTACVCVLSRKATRRG
modifications: Beta-nerve growth factor
notes: Nerve growth factor; murine NGF (Promega) used as positive control
**Q.** How did the MDC intensity [1] turn out when B1 was run?
**A.** enhanced MDC stain

**Q.** What about the “autophagic activity (MDC staining, LC3-II western blot)” value [1] of the same molecule?
**A.** up-regulated

**Q.** What about the mHtt-74Q accumulation ([2]; HD cell model, FACS analysis) of the same molecule?
**A.** reduction in mHtt-74Q accumulation

**Q.** And the “fluorescence distribution of cells expressing mHtt-74Q (aggregates)” value ([2]; NGF 50 ng/ml)?
**A.** reduced aggregates
